Data reported in patent US20140370037A1 (published 2014).

T1: human DLL3 antigen (human, UniProt Q9NYJ7 27-492)
T1 chain: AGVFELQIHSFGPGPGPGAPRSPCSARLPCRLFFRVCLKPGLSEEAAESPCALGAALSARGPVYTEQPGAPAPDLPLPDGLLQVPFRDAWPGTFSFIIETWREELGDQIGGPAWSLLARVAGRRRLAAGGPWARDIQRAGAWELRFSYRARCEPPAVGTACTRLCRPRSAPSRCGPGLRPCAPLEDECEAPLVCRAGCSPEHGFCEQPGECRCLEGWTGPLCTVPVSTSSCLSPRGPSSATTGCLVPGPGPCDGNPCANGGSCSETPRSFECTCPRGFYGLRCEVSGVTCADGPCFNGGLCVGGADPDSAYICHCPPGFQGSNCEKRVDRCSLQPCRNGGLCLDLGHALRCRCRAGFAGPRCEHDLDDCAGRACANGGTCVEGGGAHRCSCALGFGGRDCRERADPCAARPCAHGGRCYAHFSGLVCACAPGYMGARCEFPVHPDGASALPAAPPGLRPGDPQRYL


Assays:
human DLL3 antigen [1] = biological target: T1, human DLL3 antigen; assay: ForteBio
human DLL3 antigen [2] = biological target: T1, human DLL3 antigen; assay: Biacore SPR
human DLL3 antigen [3] = biological target: T1, human DLL3 antigen; assay: SPR
human DLL3 antigen [4] = biological target: T1, human DLL3 antigen; assay: ForteBio

Binder | Kd (human DLL3 antigen [2]) | Kd (human DLL3 antigen [3]) | other results
SC16.4 (antibody, V domains shown) VH: QIQLVQSGPELKKPGETVKISCKASGYTFTDYSMHWVKQAPGKGLKWMGWINTETGEPGYADDFKGRFAFSLETSASTAYLQINNLKNEDTATYFCARYDGYAMDYWGQGTSVTVSS VL: DIQMTQTTSSLSASLGDRVTISCRASQDISNYLNWYQQKPDGTVKLLIYYTSRLHSGVPSRFSGSGSGTDYSLTISNLELEDIATYFCQQGDMLPWTFGGGTKLEIK | – | – | Kd (human DLL3 antigen [1]): 0.5 nM
SC16.25 (antibody, V domains shown) VH: QVTLKESGPGILQPSQTLSLTCSFSGFSLSTSGMGVGWIRQPSGEGLEWLTDIWWDDNKYYNPSLKSRLTISKDTSSNQVFLNITSVDTADTATYYCARRVNYYYDPYYAMDYWGQGTSVTVSS VL: QIVLTQSPAIMSASPGEKVTMTCSASSSVSYMHWYQQKSGTSPKRWIYDSSKLASGVPARFSGSGSGTSYSLTISSMEAEDAATYYCQQWSSNPLTFGAGTKLELK | 0.2 nM | < 0.2 nM | –
SC16.67 (antibody, V domains shown) VH: EVQLVETGGGLVQPKGSLKLSCAVSAFTFTTYAMNWVRQAPGKGLEWVARIRNKSNNYATYYADSVKDRFTISRDDSQSMLYLQMNNLKIEDTAMYYCVFYYDYVYWGQGTLVTVSA VL: QAVVTQESALTTSPGETVTLTCRSSTGAVTTSNYANWIQEKPDHLFTGLIGGTNNRAPGVPARFSGSLIGDKAALTITGAQTEDEAIYFCGLWYSNHLVFGGGTKLTVL | – | – | Kd (human DLL3 antigen [1]): 0.5 nM
SC16.13 (antibody, V domains shown) VH: QVTLKESGPGILQPSQTLSLTCSFSGFSLSTSGMGVGWIRQPSGKGLEWLAHIWWDDVKRYNPALKSRLTISKDTSSSQVFLKIASVDTADTATYYCARIVSFDNDVVSAMDYWGQGTSVTVSS VL: QIVLTQSPALVSASPGEKVTMTCSASSSVSYMYWYQQKPRSSPKPWIYLTSNLASGVPARFSGSGSGTSYSLTISSMEAEDAATYYCQQWRSNPFTFGSGTKLEIK | 2 nM | 0.3 nM | –
SC16.34 (antibody, V domains shown) VH: QIQLVQSGPELKRPGETVKISCKASGYTFTNYGMNWVKQAPGKGLKWMGWINTYTGDPTYADDFKGRFAFSLETSASTAYLQINNLKNEDTATYFCARIGGNSPSDYWGQGTSLTVSS VL: SIVMTQTPKFLLVSAGDRVTITCKASQSVSNDVAWYQQKPGQSPKLLIYYASNRYSGVPDRFTGSGYGTDFTFTISTVQAEDLAVYFCQQDYSSPWTFGGGTKLEIK | 0.2 nM | 0.6 nM | –
hSC16.13 (antibody, V domains shown) VH: QITLKESGPTLVKPTQTLTLTCTFSGFSLSTSGMGVGWIRQPPGKALEWLAHIWWDDVKRYSPSLKSRLTITKDTSKNQVVLTMTNMDPVDTATYYCARIVSFDNDVVSAMDYWGQGTLVTVSS VL: DIQMTQSPSSLSASVGDRVTITCSASSSVSYMYWYQQKPGKAPKLLIYLTSNLASGVPSRFSGSGSGTDFTLTISSLQPEDFATYYCQQWRSNPFTFGQGTKLEIKR | – | 0.5 nM | –
hSC16.25 (antibody, V domains shown) VL: EIVLTQSPDFQSVTPKEKVTITCSASSSVSYMHWYQQKPDQSPKLLIKDSSKLASGVPSRFSGSGSGTDFTLTINSLEAEDAATYYCQQWSSNPLTFGQGTKLEIK V domain: QITLKESGPTLVKPTQTLTLTCTFSGFSLSTSGMGVGWIRQPPGKALEWLTDIWWDDNKYYNPSLKSRLTITKDTSKNQVVLTMTNMDPVDTATYYCARRVNYYYDPYYAMDYWGQGTTLVTVS | – | < 0.2 nM | –
SC16.15 (antibody, V domains shown) VH: QVQLQQSGAELAKPGASVKMSCKASGYTFTRYWIHWIKQRPGQGLEWIGYINPTTVYTEFNQNFKDKATLTADKSSTTASMQLSSLTSEDSAVYYCARGGSNFFDYWGQGTTLTVSS VL: DIQMTQSPASLAASVGETVAITCRASENIYYNLAWYQQKQGKSPQLLIYTANSLEDGVPSRFSGSGSGTQYSLKINSMQPEDSATYFCKQAYDVPPTFGGGTKLEIK | 0.5 nM | – | –
hSC16.34 (antibody, V domains shown) VH: QVQLVQSGAEVKKPGASVKVSCKASGYTFTNYGMNWVRQAPGQRLEWMGWINTYTGDPTYADDFKGRVTITRDTSASTAYMELSSLRSEDTAVYYCARIGGNSPSDYWGQGTTVTVSS VL: DIQMTQSPSSLSASVGDRVTITCKASQSVSNDVAWYQQKPGKVPKLLIYYASNRYSGVPSRFSGSGSGTDFTLTISSLQPEDVATYFCQQDYSSPWTFGGGTKVEIK | – | 0.9 nM | –
SC16.8 (antibody, V domains shown) VH: QAQLQQSGAELVRPGTSVKVSCKASGYAFTNYLIEWVKQRPGQGLEWIGVINPGTGGTNYNENFKGKATLTADKSSSTAYMQLSSLTSDDSAVYFCARSPYDYHEGAMDYWGQGTSVTVSS VL: EIQMTQSPSSMSASLGDRITITCQATQDIVKNLNWYQQKPGKPPSFLIYYAIELAEGVPSRFSGSGSGSDYSLTISNLESEDFADYYCLQFYEFPFTFGAGTKLELK | – | – | Kd (human DLL3 antigen [1]): 0.5 nM
SC16.56 (antibody, V domains shown) VH: QIQLVQSGPELKKPGETVKISCKASGYTFTNYGMNWVKQAPGKGLKWMAWINTYTGEPTYADDFKGRFAFSLETSASTASLQIINLKNEDTATYFCARIGDSSPSDYWGQGTTLTVSS VL: SIVMTQTPKFLLVSAGDRVTITCKASQSVSNDVVWYQQKPGQSPKLLIYYASNRYTGVPDRFAGSGYGTDFSFTISTVQAEDLAVYFCQQDYTSPWTFGGGTKLEIR | 1 nM | 0.5 nM | –
SC16.65 (antibody, V domains shown) VH: QVTLKESGPGILQPSQTLSLTCSFSGFSLSTSGMGVGWIRQPSGKGLEWLALIWWDDVKRYNPALKSRLTISKDASSSQVFLKIASVDTADTATYYCARIASYDYDVVYAMDYWGQGTSVSVSS VL: QIVLTQSPALMSASPGEKVTMTCSVTSSVSYMYWYQQKPRSSPKPWIYLTSNLASGVPARFSGSGSGTSYSLTISSVEAEDAATYYCQQWRNNPFTFGSGTKVEIK | 0.9 nM | – | –
SC16.39 (antibody, V domains shown) VH: EVKLEESGGGLVQFGGSMKLSCAASGFTFSDAWMDWVRQSPEKGLEWVAEIRNKANNHATYYPESVKGRFTISRDDSKSRVYLQMNNLRAEDTGIYYCTGYSSFAYWGQGTLVTVSA VL: DIQMTQTTSSLSASLGDRVTISCRASQDVINYLNWYQQKPDGTVKLLIYYTSRLHSGVPSRFSGSGSRTDYSLTISNLEPEDIATYYCQQYSERPYTFGGGTKLEIK | – | – | Kd (human DLL3 antigen [4]): 1 nM
hSC16.15 (antibody, V domains shown) VH: QVQLVQSGAEVKKPGASVKVSCKASGYTFTRYWIHWIRQAPGQGLEWMGYINPTTVYTEFNQNFKDRVTMTRDTSTSTVYMELSSLRSEDTAVYYCARGGSNFFDYWGQGTTVTVSS VL: AIQLTQSPSSLSASVGDRVTITCRASENIYYNLAWYQQKPGKAPKLLIYTANSLEDGVPSRFSGSGSGTDFTLTISSLQPEDFATYFCKQAYDVPPTFGGGTKLEIK | – | 0.2 nM | –
hSC16.56 (antibody, V domains shown) VH: QVQLVQSGAEVKKPGASVKVSCKASGYTFTNYGMNWVRQAPGQGLEWMGWINTYTGEPTYADDFKGRVTMTTDTSTSTAYMELRSLRSDDTAVYYCARIGDSSPSDYWGQGTLVTVSS VL: EIVMTQSPATLSVSPGERATLSCKASQSVSNDVVWYQQKPGQAPRLLIYYASNRYTGIPARFSGSGSGTEFTLTISSLQSEDFAVYYCQQDYTSPWTFGQGTKLEIKR | – | 0.5 nM | –
SC16.10 (antibody, V domains shown) VH: QVTLKESGPGILQSSQTLSLTCSFSGFSLSTSGMGVGWIRQPSGKGLEWLAHIWWDDVKRYNPVLKSRLTISKDTSSSQVFLKIASVDTADTATYYCARLVDDLYYFDYWGQGTTLTVSS VL: QIVLTQSPAIMSASLGERVTMTCTASSSVSSSYLHWYQQKPGSSPKLWIYSTSNLASGVPTRFSGSGSGTSYSLTISSMEAEDAATYYCHQYHRSPFTFGSGTKLEIK | – | – | Kd (human DLL3 antigen [1]): 4 nM
